Biological target: T1, RcCas13a (Rhodobacter capsulatus, UniProt D5AUW0 1-1285)
T1 sequence: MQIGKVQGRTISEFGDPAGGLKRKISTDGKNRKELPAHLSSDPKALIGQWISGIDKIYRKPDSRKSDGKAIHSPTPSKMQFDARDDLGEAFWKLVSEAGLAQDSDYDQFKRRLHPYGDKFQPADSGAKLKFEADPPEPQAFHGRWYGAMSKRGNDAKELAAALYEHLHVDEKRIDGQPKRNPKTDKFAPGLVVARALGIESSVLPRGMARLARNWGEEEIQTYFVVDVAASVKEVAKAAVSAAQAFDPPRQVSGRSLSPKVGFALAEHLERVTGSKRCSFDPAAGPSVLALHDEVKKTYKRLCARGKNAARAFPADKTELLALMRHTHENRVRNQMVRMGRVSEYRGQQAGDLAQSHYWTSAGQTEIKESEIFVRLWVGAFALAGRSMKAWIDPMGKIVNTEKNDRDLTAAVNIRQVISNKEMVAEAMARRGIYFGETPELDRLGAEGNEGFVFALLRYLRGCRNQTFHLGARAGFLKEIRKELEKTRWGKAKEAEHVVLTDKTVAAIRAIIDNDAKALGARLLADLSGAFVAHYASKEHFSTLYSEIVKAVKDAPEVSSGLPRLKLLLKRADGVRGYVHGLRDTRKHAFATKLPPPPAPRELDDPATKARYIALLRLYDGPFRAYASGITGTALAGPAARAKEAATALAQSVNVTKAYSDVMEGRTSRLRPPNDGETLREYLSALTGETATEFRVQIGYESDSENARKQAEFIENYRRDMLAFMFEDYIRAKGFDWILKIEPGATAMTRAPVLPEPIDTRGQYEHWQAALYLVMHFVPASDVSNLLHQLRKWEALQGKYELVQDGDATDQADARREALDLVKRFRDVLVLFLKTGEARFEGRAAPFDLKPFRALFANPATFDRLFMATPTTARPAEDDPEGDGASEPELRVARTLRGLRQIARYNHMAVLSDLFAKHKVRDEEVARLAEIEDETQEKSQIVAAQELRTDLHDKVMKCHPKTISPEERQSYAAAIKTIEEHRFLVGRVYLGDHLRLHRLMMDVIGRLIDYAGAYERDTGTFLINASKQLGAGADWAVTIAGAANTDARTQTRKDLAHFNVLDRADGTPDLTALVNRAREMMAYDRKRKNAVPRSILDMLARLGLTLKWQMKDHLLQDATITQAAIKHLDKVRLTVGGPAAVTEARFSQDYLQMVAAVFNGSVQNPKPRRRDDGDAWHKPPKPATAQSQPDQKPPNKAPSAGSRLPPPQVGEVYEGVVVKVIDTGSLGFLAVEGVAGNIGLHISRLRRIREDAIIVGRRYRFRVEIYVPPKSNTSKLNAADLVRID
Assay: X-ray crystal structure (2.1 A); binary complex, no target RNA; Complex co-purified by Ni affinity and SEC: 50 mM Hepes pH 8.0, 500 mM NaCl, 10% glycerol, 1 mM DTT, 4-8 C; crystallization conditions not in material
Conditions: protein: recombinant; tags: C-terminal His6, not removed for the crRNA complex; hairpin

B1: crRNA for crystallization (structured_RNA)
RNA: GCCUCACAUCACCGCCAAGACGACGGCGGACUGAACCUUCAUUACCUCUGUUUG
B1: binds.

From article PMC8776769, “Structure and mechanism of the RNA dependent RNase Cas13a from Rhodobacter capsulatus”
